From US20060099684A1

Target: activated type I collagenase
Assay: cell-based or functional assay

T2N (three N-terminal disulfide-bonded loops of human TIMP-2, C-terminal His-tag, expressed in Pichia pastoris) (from UniProt P16035 27-153)
IC50 of inhibition of MMP activity (quantitative radiometric 14C-collagen film assay): 7.5 nM
